Source: publication PMC5399129
One block for each substance: values may come before it.

Columns and labels:
[1] = molecular target: MbR E179A (Methanococcoides burtonii); test: native gel or EMSA; non-denaturing PAGE (4-15% gel; 25 mM Tris, 0.19 M glycine, pH 8.3) of activated MbR incubated with 1x or 10x molar 2-CABP (relative to active sites) for 1 h at room temperature; step: L2 dimers to higher oligomers up to L10; some 2-CABP-bound samples were then incubated with 20 or 40 mM EDTA for 30 min, which did not pull the higher order complexes apart
[2] = molecular target: MbR D183A (Methanococcoides burtonii); test: as above
[3] = molecular target: Methanococcoides burtonii Rubisco (MbR), wild type, H6-Ub tag cleaved (Methanococcoides burtonii); test: native gel or EMSA; non-denaturing PAGE of purified, activated MbR incubated without 2-CABP: with 4-CABP or XuBP (1x, 10x molar), 3-PGA (1x, 10x, 1000x molar) or crystallization buffer alone, 1 h at room temperature; step: L2 dimers to higher oligomers
[4] = molecular target: Methanococcoides burtonii Rubisco (MbR), wild type, H6-Ub tag cleaved (Methanococcoides burtonii); test: crystal structure; MbR activated (10 mM NaHCO3, 10 mM MgCl2) and incubated with a 10-fold molar excess of 2-CABP; hanging drop, room temperature; 2.6 Å; five LSus in the asymmetric unit, L10 by crystallographic symmetry
[5] = molecular target: MbR D366A (Methanococcoides burtonii); test: native gel or EMSA; non-denaturing PAGE (4-15% gel; 25 mM Tris, 0.19 M glycine, pH 8.3) of activated MbR incubated with 1x or 10x molar 2-CABP (relative to active sites) for 1 h at room temperature; step: L2 dimers to higher oligomers up to L10; some 2-CABP-bound samples were then incubated with 20 or 40 mM EDTA for 30 min, which did not pull the higher order complexes apart

- stoichiometry N [1]: 2
Substance: MbR E179A (enzyme)

- stoichiometry N [2]: 10
Substance: MbR D183A (enzyme)

- stoichiometry N [3]: 2
- stoichiometry N [4]: 10
Substance: Methanococcoides burtonii Rubisco (MbR), wild type, H6-Ub tag cleaved (enzyme)

- stoichiometry N [5]: 10
Substance: MbR D366A (enzyme)
